Assays:
Assay in all cases: cross-linking; in vivo BMOE cross-link of cysteine pairs in exponentially grown yeast cells (on ice, 6 min); Scc1-PK immunoprecipitated, western blot
Conditions in all cases: partners not purified
[1] = molecular target: T1, Smc3 K38I R1222C (S. cerevisiae, UniProt P47037 1-1230, K38I | R1222C)
T1 construct: source: S. cerevisiae W303, in vivo, whole-cell extract
T1 sequence (looked up): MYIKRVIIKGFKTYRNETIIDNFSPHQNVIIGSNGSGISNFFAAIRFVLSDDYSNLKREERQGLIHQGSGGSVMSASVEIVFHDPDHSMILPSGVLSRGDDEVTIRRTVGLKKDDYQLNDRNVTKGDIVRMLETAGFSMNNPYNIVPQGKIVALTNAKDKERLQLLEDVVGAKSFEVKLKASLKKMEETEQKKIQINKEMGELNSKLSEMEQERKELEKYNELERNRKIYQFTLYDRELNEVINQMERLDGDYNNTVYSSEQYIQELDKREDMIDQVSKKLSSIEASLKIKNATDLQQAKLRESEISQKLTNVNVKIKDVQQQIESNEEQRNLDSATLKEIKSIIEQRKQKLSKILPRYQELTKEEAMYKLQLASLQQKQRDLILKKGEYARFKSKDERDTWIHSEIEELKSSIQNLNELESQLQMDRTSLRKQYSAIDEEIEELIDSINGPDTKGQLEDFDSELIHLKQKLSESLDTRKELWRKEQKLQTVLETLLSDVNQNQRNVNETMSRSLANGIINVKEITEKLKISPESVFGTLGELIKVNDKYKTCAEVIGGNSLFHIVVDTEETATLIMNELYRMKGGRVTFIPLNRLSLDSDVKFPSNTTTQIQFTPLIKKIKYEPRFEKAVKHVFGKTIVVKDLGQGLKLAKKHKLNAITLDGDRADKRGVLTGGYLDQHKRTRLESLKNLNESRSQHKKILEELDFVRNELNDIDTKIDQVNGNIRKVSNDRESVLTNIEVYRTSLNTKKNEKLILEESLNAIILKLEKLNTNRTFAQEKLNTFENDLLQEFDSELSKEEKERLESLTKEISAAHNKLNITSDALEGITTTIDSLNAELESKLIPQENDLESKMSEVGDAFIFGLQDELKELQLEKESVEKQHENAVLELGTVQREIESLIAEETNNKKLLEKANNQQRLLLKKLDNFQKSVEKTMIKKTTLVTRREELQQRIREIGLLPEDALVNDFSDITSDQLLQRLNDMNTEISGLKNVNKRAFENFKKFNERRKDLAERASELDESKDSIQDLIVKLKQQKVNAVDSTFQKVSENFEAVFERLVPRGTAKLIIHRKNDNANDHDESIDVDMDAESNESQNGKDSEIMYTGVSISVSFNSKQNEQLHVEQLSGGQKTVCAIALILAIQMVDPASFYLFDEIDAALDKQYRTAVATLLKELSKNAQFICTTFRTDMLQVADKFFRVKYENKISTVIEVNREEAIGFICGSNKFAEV

[2] = molecular target: T2, Smc3^QQ R1222C (S. cerevisiae, UniProt P47037 1-1230, K112Q | K113Q | R1222C)
T2 construct: Smc3, S. cerevisiae; source: S. cerevisiae W303, in vivo, whole-cell extract
T2 sequence (looked up): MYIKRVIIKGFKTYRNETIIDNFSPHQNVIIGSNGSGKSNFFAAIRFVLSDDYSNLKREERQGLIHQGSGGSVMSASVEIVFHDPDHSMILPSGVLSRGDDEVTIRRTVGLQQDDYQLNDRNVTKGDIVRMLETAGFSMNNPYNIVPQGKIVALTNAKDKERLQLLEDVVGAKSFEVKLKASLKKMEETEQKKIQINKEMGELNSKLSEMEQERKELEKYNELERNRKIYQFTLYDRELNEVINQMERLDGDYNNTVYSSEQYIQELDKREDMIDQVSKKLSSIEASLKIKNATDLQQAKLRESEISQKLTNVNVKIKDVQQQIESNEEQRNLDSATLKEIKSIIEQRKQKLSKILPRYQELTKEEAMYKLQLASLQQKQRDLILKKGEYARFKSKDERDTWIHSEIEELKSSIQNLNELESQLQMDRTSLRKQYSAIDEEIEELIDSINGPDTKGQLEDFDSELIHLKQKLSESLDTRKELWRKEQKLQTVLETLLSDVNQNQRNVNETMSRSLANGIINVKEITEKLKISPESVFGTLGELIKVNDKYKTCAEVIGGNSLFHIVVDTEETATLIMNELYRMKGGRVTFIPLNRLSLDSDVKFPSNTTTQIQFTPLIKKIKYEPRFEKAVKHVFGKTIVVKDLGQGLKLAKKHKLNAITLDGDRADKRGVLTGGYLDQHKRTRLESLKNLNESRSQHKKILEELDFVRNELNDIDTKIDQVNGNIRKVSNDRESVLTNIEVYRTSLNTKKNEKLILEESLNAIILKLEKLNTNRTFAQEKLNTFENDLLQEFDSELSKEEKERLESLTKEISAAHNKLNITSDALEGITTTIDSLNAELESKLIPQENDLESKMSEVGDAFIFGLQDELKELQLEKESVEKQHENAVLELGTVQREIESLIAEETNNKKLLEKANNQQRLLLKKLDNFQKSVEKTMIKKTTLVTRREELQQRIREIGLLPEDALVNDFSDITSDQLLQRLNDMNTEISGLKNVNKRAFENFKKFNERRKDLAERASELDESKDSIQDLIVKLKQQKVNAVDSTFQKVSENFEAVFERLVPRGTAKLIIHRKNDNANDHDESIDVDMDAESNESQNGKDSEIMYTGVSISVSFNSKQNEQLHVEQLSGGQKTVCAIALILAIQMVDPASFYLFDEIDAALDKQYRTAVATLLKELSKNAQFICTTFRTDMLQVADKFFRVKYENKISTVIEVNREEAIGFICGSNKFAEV

[3] = molecular target: T3, Smc3 R1222C (S. cerevisiae, UniProt P47037 1-1230, R1222C)
T3 construct: Smc3, S. cerevisiae; source: S. cerevisiae W303, in vivo, whole-cell extract
T3 sequence (looked up): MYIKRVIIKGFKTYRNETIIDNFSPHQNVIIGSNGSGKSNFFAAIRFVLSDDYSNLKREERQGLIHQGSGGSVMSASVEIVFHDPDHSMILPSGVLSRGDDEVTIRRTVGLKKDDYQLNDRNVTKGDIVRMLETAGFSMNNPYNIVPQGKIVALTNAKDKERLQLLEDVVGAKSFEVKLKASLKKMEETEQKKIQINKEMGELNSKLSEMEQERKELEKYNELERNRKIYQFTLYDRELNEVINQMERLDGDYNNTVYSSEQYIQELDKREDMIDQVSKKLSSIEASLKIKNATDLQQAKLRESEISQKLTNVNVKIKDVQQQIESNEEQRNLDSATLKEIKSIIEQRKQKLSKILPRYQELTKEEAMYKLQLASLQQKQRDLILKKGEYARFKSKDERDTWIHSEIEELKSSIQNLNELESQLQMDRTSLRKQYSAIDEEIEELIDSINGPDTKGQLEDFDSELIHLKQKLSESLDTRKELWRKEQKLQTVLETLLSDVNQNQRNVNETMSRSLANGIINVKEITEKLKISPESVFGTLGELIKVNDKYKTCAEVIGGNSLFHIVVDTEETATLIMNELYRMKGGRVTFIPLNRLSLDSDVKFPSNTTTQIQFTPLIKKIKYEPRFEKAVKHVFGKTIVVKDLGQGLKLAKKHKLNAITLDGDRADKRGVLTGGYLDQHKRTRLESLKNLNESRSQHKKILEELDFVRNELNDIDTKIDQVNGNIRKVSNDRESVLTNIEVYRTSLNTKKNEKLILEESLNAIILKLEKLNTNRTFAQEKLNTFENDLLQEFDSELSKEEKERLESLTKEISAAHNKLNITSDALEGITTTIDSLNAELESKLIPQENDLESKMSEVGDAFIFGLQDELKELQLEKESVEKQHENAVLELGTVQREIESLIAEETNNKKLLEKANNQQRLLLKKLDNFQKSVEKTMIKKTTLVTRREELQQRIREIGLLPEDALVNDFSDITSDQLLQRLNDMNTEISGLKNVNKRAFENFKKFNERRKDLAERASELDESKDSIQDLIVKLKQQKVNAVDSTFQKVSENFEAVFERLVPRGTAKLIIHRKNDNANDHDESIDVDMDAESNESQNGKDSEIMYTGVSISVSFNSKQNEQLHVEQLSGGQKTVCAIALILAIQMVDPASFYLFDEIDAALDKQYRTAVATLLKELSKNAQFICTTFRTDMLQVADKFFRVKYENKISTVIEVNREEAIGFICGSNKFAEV

B1: Smc1 N1192C (natural protein, S. cerevisiae, UniProt P32908 1-1225, looked up)
chain: MGRLVGLELSNFKSYRGVTKVGFGESNFTSIIGPNGSGKSNMMDAISFVLGVRSNHLRSNILKDLIYRGVLNDENSDDYDNEGAASSNPQSAYVKAFYQKGNKLVELMRIISRNGDTSYKIDGKTVSYKDYSIFLENENILIKAKNFLVFQGDVEQIAAQSPVELSRMFEEVSGSIQYKKEYEELKEKIEKLSKSATESIKNRRRIHGELKTYKEGINKNEEYRKQLDKKNELQKFQALWQLYHLEQQKEELTDKLSALNSEISSLKGKINNEMKSLQRSKSSFVKESAVISKQKSKLDYIFKDKEKLVSDLRLIKVPQQAAGKRISHIEKRIESLQKDLQRQKTYVERFETQLKVVTRSKEAFEEEIKQSARNYDKFKLNENDLKTYNCLHEKYLTEGGSILEEKIAVLNNDKREIQEELERFNKRADISKRRITEELSITGEKLDTQLNDLRVSLNEKNALHTERLHELKKLQSDIESANNQEYDLNFKLRETLVKIDDLSANQRETMKERKLRENIAMLKRFFPGVKGLVHDLCHPKKEKYGLAVSTILGKNFDSVIVENLTVAQECIAFLKKQRAGTASFIPLDTIETELPTLSLPDSQDYILSINAIDYEPEYEKAMQYVCGDSIICNTLNIAKDLKWKKGIRGKLVTIEGALIHKAGLMTGGISGDANNRWDKEEYQSLMSLKDKLLIQIDELSNGQRSNSIRAREVENSVSLLNSDIANLRTQVTQQKRSLDENRLEIKYHNDLIEKEIQPKITELKKKLDDLENTKDNLVKEKEALQNNIFKEFTSKIGFTIKEYENHSGELMRQQSKELQQLQKQILTVENKLQFETDRLSTTQRRYEKAQKDLENAQVEMKSLEEQEYAIEMKIGSIESKLEEHKNHLDELQKKFVTKQSELNSSEDILEDMNSNLQVLKRERDGIKEDIEKFDLERVTALKNCKISNINIPISSETTIDDLPISSTDNEAITISNSIDINYKGLPKKYKENNTDSARKELEQKIHEVEEILNELQPNARALERYDEAEGRFEVINNETEQLKAEEKKILNQFLKIKKKRKELFEKTFDYVSDHLDAIYRELTKNPNSNVELAGGNASLTIEDEDEPFNAGIKYHATPPLKRFKDMEYLSGGEKTVAALALLFAINSYQPSPFFVLDEVDAALDITNVQRIAAYIRRHRNPDLQFIVISLKCTMFEKSDALVGVYRQQQENSSKIITLDLSNYAE
notes: Smc1, S. cerevisiae; source: S. cerevisiae W303, in vivo, whole-cell extract
crosslinking efficiency [1]: 5%
crosslinking efficiency [2]: 24%
crosslinking efficiency [3]: ~23%

Source: PMC10516938, “Conformational dynamics of cohesin/Scc2 loading complex are regulated by Smc3 acetylation and ATP binding” (Nature Communications, 2023)
